This experiment has as its target TNFα from R&D Systems (L929 cytotoxicity assay). Kind of experiment: cell-based or functional assay.

B1: sTNFR-I 3D/N105 (receptor)
chain: DSVCPQGKYIHPQNNSICCTKCHKGTYLYNDCPGPGQDTDCRECESGSFTASENHLRHCLSCSKCRKEMGQVEISSCTVDRDTVCGCRKNQYRHYWSENLFQCFNCSLCLNGTVHLSCQEKQNTVCT
On to B1, for which the “ED50 (ng/mL), L929 cytotoxicity assay, run #2, single data point” value turned out to be 413 ng/mL.
